Laboratory results published in US20040253612A1.

What was measured:
[1] = target: 33 amino acid myc-epitope peptide coded for by RNA124; assay: immunoprecipitation of in vitro translated peptide, lane 4 (dilution buffer wash)
[2] = target: 33 amino acid myc-epitope peptide coded for by RNA124; assay: immunoprecipitation of myc-epitope peptide compared with β-globin translation product
[3] = target: c-myc monoclonal antibody 9E10; assay: immunoprecipitation with 9E10 and protein A-sepharose, acetic acid elution
[4] = target: c-myc monoclonal antibody 9E10; assay: competitive immunoprecipitation, 35S-labeled fusion, competitor unlabeled synthetic myc peptide

Sequence of 33 amino acid myc-epitope peptide coded for by RNA124 (peptide, as listed by the source): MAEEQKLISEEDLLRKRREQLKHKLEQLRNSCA

| percent of the total TCA precipitable counts isolated [1] | purification (fold) against β-globin protein [2] | percentage bound to the anti-myc antibody [3] | percent bound in the presence of unlabeled myc peptide [4] | Substance |
| --- | --- | --- | --- | --- |
| 83% | > 100 fold |  |  | c-myc monoclonal antibody 9E10 |
|  |  | 35% | 9% | wild type c-myc fusion construct (peptide) |
